Assay results reported in patent publication US20040248211A1, “ICAM-related protein” (priority 1992, published 2004).
Blank lines part the entries; values can stand above or below the substance they belong to.

Columns and labels:
[1] = target: LFA-1 (CD11a/CD18) on cells (human) (UniProt P20701); assay: SKW3 cell adhesion to plate-bound shICAM-R, peptide 1-2 mg/ml
[2] = target: ICAM-1/IgG chimera (UniProt P05362); assay: adhesion of transfected CHO cells to immobilized chimera, with PMA
[3] = target: LFA-1 (CD11a/CD18) on cells (human) (UniProt P20701); assay: neutrophil adhesion to immobilized ICAM-R/Ig, mAb 15 µg/ml
[4] = target: LFA-1 (CD11a/CD18) on cells (human) (UniProt P20701); assay: JY cell adhesion to shICAM-R, mAb 10 µg/ml

LFA-1 (CD11a/CD18) on cells (human), sequence (P20701 26-1170, chain 1 of 2): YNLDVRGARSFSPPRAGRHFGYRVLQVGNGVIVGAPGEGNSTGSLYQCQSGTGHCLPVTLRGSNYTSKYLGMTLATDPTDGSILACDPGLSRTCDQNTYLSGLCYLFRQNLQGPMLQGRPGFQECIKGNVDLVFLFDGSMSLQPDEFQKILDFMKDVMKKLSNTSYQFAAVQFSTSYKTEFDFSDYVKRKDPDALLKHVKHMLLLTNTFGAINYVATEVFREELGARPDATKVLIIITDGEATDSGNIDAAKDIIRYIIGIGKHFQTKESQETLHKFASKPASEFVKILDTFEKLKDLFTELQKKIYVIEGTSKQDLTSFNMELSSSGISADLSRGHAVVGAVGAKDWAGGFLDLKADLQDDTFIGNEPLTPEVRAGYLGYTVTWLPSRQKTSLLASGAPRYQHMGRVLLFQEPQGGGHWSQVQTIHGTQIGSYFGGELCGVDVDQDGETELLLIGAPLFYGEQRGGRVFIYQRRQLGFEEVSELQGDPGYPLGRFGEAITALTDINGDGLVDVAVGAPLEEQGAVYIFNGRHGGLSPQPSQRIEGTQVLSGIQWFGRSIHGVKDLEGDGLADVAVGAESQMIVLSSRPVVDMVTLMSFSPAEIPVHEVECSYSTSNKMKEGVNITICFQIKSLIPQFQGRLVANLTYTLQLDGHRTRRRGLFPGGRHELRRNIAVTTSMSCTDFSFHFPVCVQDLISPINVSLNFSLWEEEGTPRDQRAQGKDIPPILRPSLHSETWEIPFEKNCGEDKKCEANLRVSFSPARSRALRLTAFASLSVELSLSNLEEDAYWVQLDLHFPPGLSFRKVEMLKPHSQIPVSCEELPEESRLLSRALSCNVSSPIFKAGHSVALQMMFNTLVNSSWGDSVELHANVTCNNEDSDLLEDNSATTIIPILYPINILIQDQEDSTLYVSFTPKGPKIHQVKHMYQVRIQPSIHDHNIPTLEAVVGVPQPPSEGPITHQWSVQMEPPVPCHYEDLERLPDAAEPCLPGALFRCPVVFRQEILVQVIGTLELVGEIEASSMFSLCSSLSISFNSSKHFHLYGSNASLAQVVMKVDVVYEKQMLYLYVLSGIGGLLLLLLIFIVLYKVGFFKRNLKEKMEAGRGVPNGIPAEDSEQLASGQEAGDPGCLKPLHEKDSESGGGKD
LFA-1 (CD11a/CD18) on cells (human), sequence (P05107 23-769, chain 2 of 2, further chain): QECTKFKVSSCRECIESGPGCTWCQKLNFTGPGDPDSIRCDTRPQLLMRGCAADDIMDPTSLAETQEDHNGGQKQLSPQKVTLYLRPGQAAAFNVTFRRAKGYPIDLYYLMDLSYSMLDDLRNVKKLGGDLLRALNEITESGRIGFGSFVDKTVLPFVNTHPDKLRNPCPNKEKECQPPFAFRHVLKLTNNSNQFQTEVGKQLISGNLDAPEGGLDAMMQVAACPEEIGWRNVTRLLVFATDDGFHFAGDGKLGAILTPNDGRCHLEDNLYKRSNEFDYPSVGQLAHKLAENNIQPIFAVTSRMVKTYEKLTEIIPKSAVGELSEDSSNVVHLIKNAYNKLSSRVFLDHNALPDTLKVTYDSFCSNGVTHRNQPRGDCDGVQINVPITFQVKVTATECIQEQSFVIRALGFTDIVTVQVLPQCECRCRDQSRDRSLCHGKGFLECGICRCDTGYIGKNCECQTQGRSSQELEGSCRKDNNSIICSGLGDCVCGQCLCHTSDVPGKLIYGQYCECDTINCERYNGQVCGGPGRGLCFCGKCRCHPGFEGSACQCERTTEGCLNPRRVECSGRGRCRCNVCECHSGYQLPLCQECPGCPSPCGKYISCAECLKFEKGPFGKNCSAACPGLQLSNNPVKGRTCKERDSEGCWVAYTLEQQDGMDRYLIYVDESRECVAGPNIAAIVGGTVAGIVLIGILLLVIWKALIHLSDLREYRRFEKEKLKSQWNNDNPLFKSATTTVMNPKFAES
ICAM-1/IgG chimera, sequence (P05362 28-480 limits assumed, change not shown): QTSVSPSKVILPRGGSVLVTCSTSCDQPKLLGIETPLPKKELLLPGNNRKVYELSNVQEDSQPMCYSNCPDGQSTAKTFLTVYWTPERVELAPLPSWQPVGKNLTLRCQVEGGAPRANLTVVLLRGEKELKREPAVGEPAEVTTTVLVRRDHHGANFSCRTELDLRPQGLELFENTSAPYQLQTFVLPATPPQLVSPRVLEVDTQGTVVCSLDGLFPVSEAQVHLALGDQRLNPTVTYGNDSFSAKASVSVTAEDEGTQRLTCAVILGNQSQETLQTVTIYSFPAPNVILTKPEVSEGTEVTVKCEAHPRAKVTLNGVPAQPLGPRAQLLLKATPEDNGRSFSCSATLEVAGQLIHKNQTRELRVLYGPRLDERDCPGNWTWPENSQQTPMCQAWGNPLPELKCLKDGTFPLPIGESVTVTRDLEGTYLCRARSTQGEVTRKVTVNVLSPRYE
LFA-1 (CD11a/CD18) on cells, sequence (P20701 26-1170): as the sequence (P20701 26-1170, chain 1 of 2) above
LFA-1 (CD11a/CD18) on cells, sequence (P05107 23-769): as the sequence (P05107 23-769, chain 2 of 2, further chain) above

- % Inhibition of cell binding to shICAM-R [1]: 26%
Substance: ICAM-R domain 1 peptide NGSQI, residues 72-76

- fold increase in binding [2]: 2 to 3 fold
Substance: LFA-1 (CD11a/CD18) on cells (from UniProt P20701 26-1170; P05107 23-769) (receptor; other documents disagree on this pair)

- % inhibition of neutrophil binding to ICAM-R [3]: 50%
Substance: anti-CD11a monoclonal antibody TS1/22

- Inhibition (%) of CD18-dependent JY cell binding [4]: 100%
Substance: anti-CD18 monoclonal antibody 60.3
